Source: paper PMC6738647, “A nanobody targeting the translocated intimin receptor inhibits the attachment of enterohemorrhagic E. coli to human colonic mucosa” (PLoS Pathogens, 2019)

T1: Tir TirM (Escherichia coli, UniProt P0DJ92)
T1 chain: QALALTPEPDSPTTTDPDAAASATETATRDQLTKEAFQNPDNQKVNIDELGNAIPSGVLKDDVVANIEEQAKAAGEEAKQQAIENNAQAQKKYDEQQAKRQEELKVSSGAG

T2: Int280 of EHEC (C-terminal receptor-binding domain of intimin), His-tagged (enterohemorrhagic E. coli (EHEC) O157:H7, UniProt P43261 655-934)
T2 construct: also called Int280_(EHEC)
T2 sequence: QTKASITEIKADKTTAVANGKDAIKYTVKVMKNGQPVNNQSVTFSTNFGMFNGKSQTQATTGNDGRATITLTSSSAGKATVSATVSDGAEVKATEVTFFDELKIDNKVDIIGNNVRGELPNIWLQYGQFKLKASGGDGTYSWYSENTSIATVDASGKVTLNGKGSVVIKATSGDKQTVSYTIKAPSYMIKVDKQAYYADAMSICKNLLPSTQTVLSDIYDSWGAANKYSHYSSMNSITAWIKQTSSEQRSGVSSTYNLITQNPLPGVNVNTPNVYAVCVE

B1: Intimin Int280 Int280 (protein)
chain: QTKASITEIKADKTTAVANGKDAIKYTVKVMKNGQPVNNQSVTFSTNFGMFNGKSQTQATTGNDGRATITLTSSSAGKATVSATVSDGAEVKATEVTFFDELKIDNKVDIIGNNVRGELPNIWLQYGQFKLKASGGDGTYSWYSENTSIATVDASGKVTLNGKGSVVIKATSGDKQTVSYTIKAPSYMIKVDKQAYYADAMSICKNLLPSTQTVLSDIYDSWGAANKYSHYSSMNSITAWIKQTSSEQRSGVSSTYNLITQNPLPGVNVNTPNVYAVCVE
B2: Biotinylated TirM of EHEC, His-tagged (domain or fragment)
chain: QALALTPEPDSPTTTDPDAAASATETATRDQLTKEAFQNPDNQKVNIDELGNAIPSGVLKDDVVANIEEQAKAAGEEAKQQAIENNAQAQKKYDEQQAKRQEELKVSSGAG
modifications: biotin (Biotinamidocaproate N-hydroxysuccinimide ester)
notes: also called biotinylated TirM_(EHEC)

Key:
Tir TirM = biological target: T1, Tir TirM; test: SPR
[1] = biological target: T2, Int280 of EHEC (C-terminal …); test: SPR; BiaCore3000; biotinylated TirM_(EHEC) immobilised on a Streptavidin SA chip at 150 RU; Int280 as analyte at 30 ul/min in HEPES-buffer; 1:1 Langmuir model; KD from koff/kon; conditions: both partners purified

Row | Binder | Kd (Tir TirM) [nM] | Kd [1] [nM] | koff [1] [s⁻¹] | kon [1] [M⁻¹ s⁻¹]
1 | B1 | ~40 |  |  | 
2 | B2 |  | 48.1 | 0.0375 | 785000
